Results published in patent US20210324063A1 (KODIAK SCIENCES, published 2021).

Tests used:
Purified human C1q = target: T1, Purified human C1q (human, UniProt P02745 23-245; P02746 28-253; P02747 29-245); experiment: ELISA: antibody coated on the plate in 1:2 titration, purified human C1q at 5 ug/mL, HRP anti-human C1q detection
T1 construct: also called human complement protein C1q
Procedure: Complement engagement liabilities were assessed by C1q ELISA binding. The antibody panel was titrated 1:2 from a top concentration of 10 ug/mL in 1×PBS for overnight coating at 4 C. Plates were then blocked After a 2 hour blocking step in 1% BSA. Purified human C1q was then applied at 5 ug/mL in 1% BSA for 2 hours at room temperature followed by detection with HRP-conjugated anti-human C1q antibody and TMB development.

Histidine-tagged FcγRI = target: T2, Histidine-tagged FcγRI (UniProt P12314 16-288, limits assumed); experiment: SPR (BIAcore T200), his-tagged receptor captured by anti-his antibody on a CM5 chip, antibody as analyte, single-cycle kinetics, 25 C
T2 construct: also called Fc gamma receptor I; not shown: histidine tag
Procedure: (§1) Binding kinetics experiments were performed at 25° C. using a BIAcore T200. An anti-his antibody was immobilized on a CM5 chip. Histidine-tagged FcγRI and FcγRIIIa at a concentration of 0.5 μg/mL prepared in HBS-EP buffer (0.01M HEPES pH7.4, 0.15M NaCl, 3 mM EDTA, 0.005% Tween-20) were injected independently for 60-s using a flow rate of 5 μL/min in the active flow cell only. […] Antibody concentrations in the range of 0.48 to 300 nM were used for FcγRI and 7.8 nM to 2000 nM for FcγRIIIa. Following each run, flow cells were regenerated with a 60 s injection of 10 mM glycine pH 1.7 using a flow-rate of […]. Data was double referenced, using subtraction of both reference flow cell and blank cycles. Analysis was performed using BIA evaluation software.

[1] = target: T3, Histidine-tagged FcγRIIIa (UniProt P08637 17-208, limits assumed); experiment: as above
T3 construct: also called Fc gamma receptor IIIa; not shown: histidine tag
Procedure: as §1

T1 sequence (P02745 23-245 limits assumed, chain 1 of 3): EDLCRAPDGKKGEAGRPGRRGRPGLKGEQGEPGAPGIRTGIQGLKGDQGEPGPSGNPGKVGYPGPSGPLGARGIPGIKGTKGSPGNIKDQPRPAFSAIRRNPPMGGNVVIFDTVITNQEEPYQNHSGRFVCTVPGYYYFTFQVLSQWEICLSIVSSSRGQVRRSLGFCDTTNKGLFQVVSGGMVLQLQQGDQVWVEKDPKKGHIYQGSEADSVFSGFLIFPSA
T1 sequence (P02746 28-253 limits assumed, chain 2 of 3): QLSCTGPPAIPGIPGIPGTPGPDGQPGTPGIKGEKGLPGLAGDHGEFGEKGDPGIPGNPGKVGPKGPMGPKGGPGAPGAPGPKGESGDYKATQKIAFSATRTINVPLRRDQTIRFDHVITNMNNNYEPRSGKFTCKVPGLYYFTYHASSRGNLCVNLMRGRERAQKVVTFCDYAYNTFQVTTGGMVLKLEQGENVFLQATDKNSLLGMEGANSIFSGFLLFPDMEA
T1 sequence (P02747 29-245 limits assumed, chain 3 of 3): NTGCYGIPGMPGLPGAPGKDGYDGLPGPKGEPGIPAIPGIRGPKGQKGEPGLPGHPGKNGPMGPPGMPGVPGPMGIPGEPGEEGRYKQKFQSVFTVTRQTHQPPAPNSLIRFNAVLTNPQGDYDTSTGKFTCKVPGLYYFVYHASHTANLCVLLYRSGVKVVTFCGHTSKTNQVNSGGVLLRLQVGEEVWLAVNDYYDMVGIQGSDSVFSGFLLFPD
T2 sequence (P12314 16-288 limits assumed): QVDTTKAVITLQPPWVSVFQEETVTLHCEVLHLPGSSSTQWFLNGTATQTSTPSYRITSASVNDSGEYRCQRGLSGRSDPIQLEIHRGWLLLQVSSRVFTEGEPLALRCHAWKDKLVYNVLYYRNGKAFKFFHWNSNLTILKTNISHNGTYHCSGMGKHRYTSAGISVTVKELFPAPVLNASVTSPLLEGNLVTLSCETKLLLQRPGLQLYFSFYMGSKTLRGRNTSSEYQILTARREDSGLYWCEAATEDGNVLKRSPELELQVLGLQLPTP
T3 sequence (P08637 17-208 limits assumed): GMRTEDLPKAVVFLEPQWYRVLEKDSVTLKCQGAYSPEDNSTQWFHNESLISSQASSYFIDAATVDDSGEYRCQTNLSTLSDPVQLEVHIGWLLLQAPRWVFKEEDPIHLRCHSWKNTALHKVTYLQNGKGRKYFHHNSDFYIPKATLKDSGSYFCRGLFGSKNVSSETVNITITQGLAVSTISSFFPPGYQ

Row | binding result (Purified human C1q) | binding result (Histidine-tagged FcγRI) | binding result [1] | Binder
1 | binds | no binding (tested: 0.48 to 300 nM) | no binding (tested: 7.8 nM to 2000 nM) | OG1950 (antibody, IgG1, also called anti-VEGF-A antibody with an L443C (EU numbering) mutation; unconjugated antibody) heavy: EVQLVESGGGLVQPGGSLRLSCAASGYDFTHYGMNWVRQAPGKGLEWVGWINTYTGEPTYAADFKRRFTFSLDTSKSTAYLQMNSLRAEDTAVYYCAKYPYYYGTSHWYFDVWGQGTLVTVSSASTKGPSVFPLAPSSKSTSGGTAALGCLVKDYFPEPVTVSWNSGALTSGVHTFPAVLQSSGLYSLSSVVTVPSSSLGTQTYICNVNHKPSNTKVDKKVEPKSCDKTHTCPPCPAPEAAGAPSVFLFPPKPKDTLMISRTPEVTCVVVDVSHEDPEVKFNWYVDGVEVHNAKTKPREEQYNSTYRVVSVLTVLHQDWLNGKEYKCKVSNKALPAPIEKTISKAKGQPREPQVYTLPPSREEMTKNQVSLTCLVKGFYPSDIAVEWESNGQPENNYKTTPPVLDSDGSFFLYSKLTVDKSRWQQGNVFSCSVMHEALHNHYTQKSLSCSPGK light: not shown
2 | binds |  |  | Avastin (bevacizumab) (antibody, human IgG1, kappa, Commercial product) heavy: not shown light: not shown
